Data taken from patent US20260151504A1, “SYNTHETIC CELLS COMPRISING TNF-RELATED APOPTOSIS-INDUCING LIGAND (TRAIL) AND METHODS OF USING THE SAME” (Slingshot Biosciences, Inc., priority 2023, published 2026).
Blank lines part the entries; values can stand above or below the substance they belong to.

Experiments:
[1] = molecular target: TRAIL receptors DR4 and/or DR5; assay: cell-based or functional assay
streptavidin [2] = molecular target: streptavidin (UniProt P22629); assay: flow cytometry, antibody staining of STV porous hydrogel microspheres, BD Quantibrite PE standard curve
Chain of streptavidin (P22629 37-163 limits assumed): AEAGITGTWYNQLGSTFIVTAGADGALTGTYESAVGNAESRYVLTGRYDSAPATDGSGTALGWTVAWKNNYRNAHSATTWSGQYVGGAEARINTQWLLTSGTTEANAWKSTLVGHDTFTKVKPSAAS

streptavidin [3] = molecular target: streptavidin (UniProt P22629); assay: flow cytometry, antibody staining of STV magnetic beads, BD Quantibrite PE standard curve
streptavidin [4] = molecular target: streptavidin (UniProt P22629); assay: flow cytometry, antibody staining of STV smooth hydrogel microspheres, BD Quantibrite PE standard curve

Early Stage Apoptotic (7-AAD-/Annexin V+), Jeko-1, 24 Hrs.; TRAIL Magnetic Beads [1]: 25.8%
Early Stage Apoptotic (7-AAD-/Annexin V+), Jeko-1, 24 Hrs.; TRAIL Porous Hydrogels [1]: 52.1%
Early Stage Apoptotic (7-AAD-/Annexin V+), Jeko-1, 24 Hrs.; TRAIL Smooth Hydrogels [1]: 44.8%
Early Stage Apoptotic (7-AAD-/Annexin V+), Jeko-1, 24 Hrs.; TRAIL encapsulated PLGA [1]: 3.08%
Early Stage Apoptotic (7-AAD-/Annexin V+), Jeko-1, 48 Hrs.; TRAIL Magnetic Beads [1]: 6.55%
Early Stage Apoptotic (7-AAD-/Annexin V+), Jeko-1, 48 Hrs.; TRAIL Porous Hydrogels [1]: 5.77%
Early Stage Apoptotic (7-AAD-/Annexin V+), Jeko-1, 48 Hrs.; TRAIL Smooth Hydrogels [1]: 11.9%
Early Stage Apoptotic (7-AAD-/Annexin V+), Jeko-1, 48 Hrs.; TRAIL encapsulated PLGA [1]: 3.07%
Early Stage Apoptotic (7-AAD-/Annexin V+), Jurkat, 24 Hrs.; TRAIL Magnetic Beads [1]: 22.3%
Early Stage Apoptotic (7-AAD-/Annexin V+), Jurkat, 24 Hrs.; TRAIL Porous Hydrogels [1]: 41.9%
Early Stage Apoptotic (7-AAD-/Annexin V+), Jurkat, 24 Hrs.; TRAIL Smooth Hydrogels [1]: 39%
Early Stage Apoptotic (7-AAD-/Annexin V+), Jurkat, 24 Hrs.; TRAIL encapsulated PLGA [1]: 7.86%
Early Stage Apoptotic (7-AAD-/Annexin V+), Jurkat, 48 Hrs.; TRAIL Magnetic Beads [1]: 13.8%
Early Stage Apoptotic (7-AAD-/Annexin V+), Jurkat, 48 Hrs.; TRAIL Porous Hydrogels [1]: 22.5%
Early Stage Apoptotic (7-AAD-/Annexin V+), Jurkat, 48 Hrs.; TRAIL Smooth Hydrogels [1]: 18.3%
Early Stage Apoptotic (7-AAD-/Annexin V+), Jurkat, 48 Hrs.; TRAIL encapsulated PLGA [1]: 3.1%
Late Stage Apoptotic (7-AAD+/Annexin V+), Jeko-1, 24 Hrs.; TRAIL Magnetic Beads [1]: 20.1%
Late Stage Apoptotic (7-AAD+/Annexin V+), Jeko-1, 24 Hrs.; TRAIL Porous Hydrogels [1]: 33.9%
Late Stage Apoptotic (7-AAD+/Annexin V+), Jeko-1, 24 Hrs.; TRAIL Smooth Hydrogels [1]: 16.9%
Late Stage Apoptotic (7-AAD+/Annexin V+), Jeko-1, 24 Hrs.; TRAIL encapsulated PLGA [1]: 5.34%
Late Stage Apoptotic (7-AAD+/Annexin V+), Jeko-1, 48 Hrs.; TRAIL Magnetic Beads [1]: 44.1%
Late Stage Apoptotic (7-AAD+/Annexin V+), Jeko-1, 48 Hrs.; TRAIL Porous Hydrogels [1]: 87.5%
Late Stage Apoptotic (7-AAD+/Annexin V+), Jeko-1, 48 Hrs.; TRAIL Smooth Hydrogels [1]: 43.1%
Late Stage Apoptotic (7-AAD+/Annexin V+), Jeko-1, 48 Hrs.; TRAIL encapsulated PLGA [1]: 13.9%
Late Stage Apoptotic (7-AAD+/Annexin V+), Jurkat, 24 Hrs.; TRAIL Magnetic Beads [1]: 14.9%
Late Stage Apoptotic (7-AAD+/Annexin V+), Jurkat, 24 Hrs.; TRAIL Porous Hydrogels [1]: 18.8%
Late Stage Apoptotic (7-AAD+/Annexin V+), Jurkat, 24 Hrs.; TRAIL Smooth Hydrogels [1]: 18%
Late Stage Apoptotic (7-AAD+/Annexin V+), Jurkat, 24 Hrs.; TRAIL encapsulated PLGA [1]: 3.17%
Late Stage Apoptotic (7-AAD+/Annexin V+), Jurkat, 48 Hrs.; TRAIL Magnetic Beads [1]: 32.9%
Late Stage Apoptotic (7-AAD+/Annexin V+), Jurkat, 48 Hrs.; TRAIL Porous Hydrogels [1]: 63.5%
Late Stage Apoptotic (7-AAD+/Annexin V+), Jurkat, 48 Hrs.; TRAIL Smooth Hydrogels [1]: 43%
Late Stage Apoptotic (7-AAD+/Annexin V+), Jurkat, 48 Hrs.; TRAIL encapsulated PLGA [1]: 5.7%
Live Cells (7-AAD-/Annexin V-), Jeko-1, 24 Hrs.; TRAIL Magnetic Beads [1]: 54%
Live Cells (7-AAD-/Annexin V-), Jeko-1, 24 Hrs.; TRAIL Porous Hydrogels [1]: 13.6%
Live Cells (7-AAD-/Annexin V-), Jeko-1, 24 Hrs.; TRAIL Smooth Hydrogels [1]: 38.2%
Live Cells (7-AAD-/Annexin V-), Jeko-1, 24 Hrs.; TRAIL encapsulated PLGA [1]: 91.5%
Live Cells (7-AAD-/Annexin V-), Jeko-1, 48 Hrs.; TRAIL Magnetic Beads [1]: 48.2%
Live Cells (7-AAD-/Annexin V-), Jeko-1, 48 Hrs.; TRAIL Porous Hydrogels [1]: 5.18%
Live Cells (7-AAD-/Annexin V-), Jeko-1, 48 Hrs.; TRAIL Smooth Hydrogels [1]: 44.8%
Live Cells (7-AAD-/Annexin V-), Jeko-1, 48 Hrs.; TRAIL encapsulated PLGA [1]: 82.4%
Live Cells (7-AAD-/Annexin V-), Jurkat, 24 Hrs.; TRAIL Magnetic Beads [1]: 62.5%
Live Cells (7-AAD-/Annexin V-), Jurkat, 24 Hrs.; TRAIL Porous Hydrogels [1]: 39.1%
Live Cells (7-AAD-/Annexin V-), Jurkat, 24 Hrs.; TRAIL Smooth Hydrogels [1]: 42.7%
Live Cells (7-AAD-/Annexin V-), Jurkat, 24 Hrs.; TRAIL encapsulated PLGA [1]: 88.6%
Live Cells (7-AAD-/Annexin V-), Jurkat, 48 Hrs.; TRAIL Magnetic Beads [1]: 49.7%
Live Cells (7-AAD-/Annexin V-), Jurkat, 48 Hrs.; TRAIL Porous Hydrogels [1]: 12%
Live Cells (7-AAD-/Annexin V-), Jurkat, 48 Hrs.; TRAIL Smooth Hydrogels [1]: 36%
Live Cells (7-AAD-/Annexin V-), Jurkat, 48 Hrs.; TRAIL encapsulated PLGA [1]: 85.6%
percentage of apoptotic cells (Annexin V-positive), Jeko-1, 24 h; TRAIL attached to magnetic beads [1]: 47.1%
percentage of apoptotic cells (Annexin V-positive), Jeko-1, 24 h; TRAIL encapsulated in PLGA microspheres [1]: 9.69%
percentage of apoptotic cells (Annexin V-positive), Jeko-1, 24 h; TRAIL on porous hydrogel microspheres [1]: 86.3%
percentage of apoptotic cells (Annexin V-positive), Jeko-1, 24 h; TRAIL on smooth hydrogel microspheres [1]: 66.3%
percentage of apoptotic cells, Jeko-1, 48 hours; TRAIL attached to magnetic beads [1]: 50.1%
percentage of apoptotic cells, Jeko-1, 48 hours; TRAIL encapsulated in PLGA microspheres [1]: 17.2%
percentage of apoptotic cells, Jeko-1, 48 hours; TRAIL on porous hydrogel microspheres [1]: 93%
percentage of apoptotic cells, Jurkat, 24 h; TRAIL attached to magnetic beads [1]: 39.5%
percentage of apoptotic cells, Jurkat, 24 h; TRAIL encapsulated in PLGA microspheres [1]: 6.45%
percentage of apoptotic cells, Jurkat, 24 h; TRAIL on porous hydrogel microspheres [1]: 78%
percentage of apoptotic cells, Jurkat, 48 h; TRAIL attached to magnetic beads [1]: 57.2%
percentage of apoptotic cells, Jurkat, 48 h; TRAIL encapsulated in PLGA microspheres [1]: 7.87%
percentage of apoptotic cells, Jurkat, 48 h; TRAIL on porous hydrogel microspheres [1]: 81.4%
percentage of early apoptotic cells, Jeko-1, 24 h; TRAIL on porous hydrogel microspheres (text value; Table 4A prints 52.1) [1]: 52.3%
Substance: Biotinylated Fc-TRAIL: active fragment of the human TRAIL protein comprising SEQ ID NO: 2 with a mouse IgG2a-Fc Tag at the N-terminus (ACROBiosystems TRLH52591MG), biotinylated with Oyo-link single biotin (from UniProt P50591 114-281) (Fc fusion)
Necrotic (7-AAD+/Annexin V-), Jeko-1, 24 Hrs.; TRAIL Magnetic Beads [1]: 0.12%
Necrotic (7-AAD+/Annexin V-), Jeko-1, 24 Hrs.; TRAIL Porous Hydrogels [1]: 0.34%
Necrotic (7-AAD+/Annexin V-), Jeko-1, 24 Hrs.; TRAIL Smooth Hydrogels [1]: 0.1%
Necrotic (7-AAD+/Annexin V-), Jeko-1, 24 Hrs.; TRAIL encapsulated PLGA [1]: 0.088%
Necrotic (7-AAD+/Annexin V-), Jeko-1, 48 Hrs.; TRAIL Magnetic Beads [1]: 1.08%
Necrotic (7-AAD+/Annexin V-), Jeko-1, 48 Hrs.; TRAIL Smooth Hydrogels [1]: 0.17%
Necrotic (7-AAD+/Annexin V-), Jeko-1, 48 Hrs.; TRAIL encapsulated PLGA [1]: 0.62%
Necrotic (7-AAD+/Annexin V-), Jurkat, 24 Hrs.; TRAIL Magnetic Beads [1]: 0.28%
Necrotic (7-AAD+/Annexin V-), Jurkat, 24 Hrs.; TRAIL Porous Hydrogels [1]: 0.18%
Necrotic (7-AAD+/Annexin V-), Jurkat, 24 Hrs.; TRAIL Smooth Hydrogels [1]: 0.23%
Necrotic (7-AAD+/Annexin V-), Jurkat, 24 Hrs.; TRAIL encapsulated PLGA [1]: 0.36%
Necrotic (7-AAD+/Annexin V-), Jurkat, 48 Hrs.; TRAIL Magnetic Beads [1]: 3.61%
Necrotic (7-AAD+/Annexin V-), Jurkat, 48 Hrs.; TRAIL Porous Hydrogels [1]: 2.1%
Necrotic (7-AAD+/Annexin V-), Jurkat, 48 Hrs.; TRAIL Smooth Hydrogels [1]: 2.67%
Necrotic (7-AAD+/Annexin V-), Jurkat, 48 Hrs.; TRAIL encapsulated PLGA [1]: 5.61%

# of STV molecules/bead (molecules/bead) (streptavidin [2]): 20100
# of STV molecules/bead (molecules/bead) (streptavidin [3]): 120000
# of STV molecules/bead (molecules/bead) (streptavidin [4]): 20100
Substance: PE-anti-streptavidin antibody (BioLegend, clone: 3A20.2)

Early Stage Apoptotic (7-AAD-/Annexin V+), Jeko-1, 24 Hrs.; Soluble TRAIL [1]: 35.8%
Early Stage Apoptotic (7-AAD-/Annexin V+), Jeko-1, 48 Hrs.; Soluble TRAIL [1]: 9.88%
Early Stage Apoptotic (7-AAD-/Annexin V+), Jurkat, 24 Hrs.; Soluble TRAIL [1]: 51.1%
Early Stage Apoptotic (7-AAD-/Annexin V+), Jurkat, 48 Hrs.; Soluble TRAIL [1]: 20.4%
Late Stage Apoptotic (7-AAD+/Annexin V+), Jeko-1, 24 Hrs.; Soluble TRAIL [1]: 26.4%
Late Stage Apoptotic (7-AAD+/Annexin V+), Jeko-1, 48 Hrs.; Soluble TRAIL [1]: 59.7%
Late Stage Apoptotic (7-AAD+/Annexin V+), Jurkat, 24 Hrs.; Soluble TRAIL [1]: 22.5%
Late Stage Apoptotic (7-AAD+/Annexin V+), Jurkat, 48 Hrs.; Soluble TRAIL [1]: 56.9%
Live Cells (7-AAD-/Annexin V-), Jeko-1, 24 Hrs.; Soluble TRAIL [1]: 37.8%
Live Cells (7-AAD-/Annexin V-), Jeko-1, 48 Hrs.; Soluble TRAIL [1]: 30.2%
Live Cells (7-AAD-/Annexin V-), Jurkat, 24 Hrs.; Soluble TRAIL [1]: 26.3%
Live Cells (7-AAD-/Annexin V-), Jurkat, 48 Hrs.; Soluble TRAIL [1]: 21.3%
percentage of apoptotic cells (Annexin V-positive), Jeko-1, 24 h; soluble TRAIL protein [1]: 60.7%
percentage of apoptotic cells, Jeko-1, 48 hours; soluble TRAIL protein [1]: 69.8%
percentage of apoptotic cells, Jurkat, 24 h; soluble TRAIL protein [1]: 72.9%
percentage of apoptotic cells, Jurkat, 48 h; soluble TRAIL protein [1]: 73%
Substance: soluble TRAIL protein (ligand)
Necrotic (7-AAD+/Annexin V-), Jeko-1, 24 Hrs.; Soluble TRAIL [1]: 0.076%
Necrotic (7-AAD+/Annexin V-), Jeko-1, 48 Hrs.; Soluble TRAIL [1]: 0.16%
Necrotic (7-AAD+/Annexin V-), Jurkat, 24 Hrs.; Soluble TRAIL [1]: 0.11%
Necrotic (7-AAD+/Annexin V-), Jurkat, 48 Hrs.; Soluble TRAIL [1]: 1.42%
